Results taken from patent US20250027945A1 (University of California, published 2025).
Positions count from the first letter of the chain named.

B1: 3C12 (antibody, V domains shown)
VH: QVQLKESGPGLVAPSQSLSITCTVSGFSLNGYGVNWVRQPPGKDLEWLGMIWGDGITEFNSALKSRLSISKDNSKSQVFLKMNSLQTEDTARYYCVRQGSGVWFAYWGQGTLVS
VL: DVLVTQTPLSLPVSLGDQASISCRSSQTIVHSNGNTYLEWYLQKPGQSPKLLIYKVSNRFSGVPDRFSGSGSGTDFTLKISRVEAEDLGVYYCFQGSHVPYTFGGGTKLEIK
notes: anti-human RYK mAb; also called 3C12 mAb
B2: 11E9 (antibody, V domains shown)
VH: QVQLKESGPGLVAPSQSLSITCTVSGFSLNGYGVNWVRQPPGKDLEWLGMIWGDGITEFNSALKSRLSISKDNSKSQVFLKMNSLQTEDTARYYCVRQGSGVWFAYWGQGTLS
VL: B1 VL with S61C
notes: anti-human RYK mAb; also called 11E9 mAb
B3: recombinant human RYK protein used in KinExA (receptor, UniProt P34925 46-227, looked up)
chain: AAPAPRPPELQSASAGPSVSLYLSEDEVRRLIGLDAELYYVRNDLISHYALSFSLLVPSETNFLHFTWHAKSKVEYKLGFQVDNVLAMDMPQVNISVQGEVPRTLSVFRVELSCTGKVDSEVMILMQLNLTVNSSKNFTVLNFKRRKMCYKKLEEVKTSALDKNTSRTIYDPVHAAPTTSTR
notes: Legend prints 'RYK2'; also called recombinant human RYK2 protein
B4: 7-H10 anti-human RYK mAb (antibody, V domains shown)
VH: QVQLQQSGAELAKPGTSVKLSCKASGYIFTNYDINWVRQRPEQGLEWIGWIFPGDDSTKYNEKFEGKAALTTDKSSNTAYIQLSRLTSGDSAVYFCTRYHYYGSSLGWSFDVWGAGTSVTVSS
VL: EIVLTQSPALMAASPGEKVTITCSVSSRISSINLHWYQQKSETSPKTWIYGTSNLASGVPSRFSGSGSGTSYSLTISNMEAEDAATYYCQQWSSYPYTFGGGTKVEIK
notes: Mouse hybridoma mAb, kappa light chain, detected with anti-mouse IgG; also called mAb 7-H10

Experiments:
[1] = molecular target: T1, recombinant extracellular protein of mouse RYK (mouse, UniProt Q01887 35-211); test: dot blot of recombinant RYK proteins (rabbit IgG tag) on nylon membrane, probed with the mAb, anti-mouse IgG-HRP
T1 construct: also called mRYK; not shown: rabbit IgG tag for purification
Method: FIGS. 4A-4B illustrate the […] of amino acids required for binding of anti-human RYK mAb to the extracellular domain of human RYK (SEQ ID NO:129). FIG. 4A illustrates experiments in which binding of 2-D11, 7-H10, 3-C12, 11-E9, 6-B5, 6-D10 and sheep anti-RYK mAb was assessed using recombinant human RYK proteins (SEQ ID NO:129) in which one amino acid that differs between human and mouse RYK within the extracellular domain was replaced with the corresponding amino acid of mouse RYK. Each recombinant protein was transferred onto nylon membrane, probed with the indicated anti-RYK mAb or Sheep anti-RYK Ab, and detected with an anti-mouse IgG or donkey-anti-sheep antibody conjugated with horse radish peroxidase. Rabbit anti-IgG blotting is a positive for protein blotting and detection as recombinant proteins have a rabbit IgG tag for purification. Alignment of the protein sequences of the extracellular domain of human and mouse RYK are shown in the lower panel and the boxed amino acids indicate the amino acids changes made for each recombinant protein. […]

7-H10 anti-human RYK mAb = molecular target: B4; test: KinExA 3200: free mAb captured on RYK-coated particles in the presence of rising molar concentration of soluble RYK
Method: (§1) Analysis was performed using a KinExA 3200 instrument. FIG. 7A: The proportion of anti-human RYK mAb bound to particles coated with RYK protein (y-axis) in the presence of increasing molar (M) concentration of soluble RYK competitor (x-axis) is shown for 2-D11 mAb (upper left panel) and 7-H10 mAb (lower left panel).

[2] = molecular target: B3; test: KinExA 3200, soluble RYK competitor against RYK-coated particles
Method: as §1

[3] = molecular target: T1, recombinant extracellular protein of …; test: immunoblot of recombinant extracellular protein on nylon membrane
Method: FIG. 4A illustrates experiments in which binding of 2-D11, 7-H10, 3-C12, 11-E9, 6-B5, 6-D10 and sheep anti-RYK mAb was assessed using recombinant human RYK proteins (SEQ ID NO:129) in which one amino acid that differs between human and mouse RYK within the extracellular domain was replaced with the corresponding amino acid of mouse RYK. Each recombinant protein was transferred onto nylon membrane, probed with the indicated anti-RYK mAb or Sheep anti-RYK Ab, and detected with an anti-mouse IgG or donkey-anti-sheep antibody conjugated with horse radish peroxidase. […]
The anti-human RYK mAbs, 2-D11 and 7-H10, appear specific for an amino terminal epitope of human Ryk (residues 46-57) that are distinct from those in mouse Ryk (FIG. 3); these mAbs also bind mutant forms of Ryk containing amino acid substitutions in human Ryk at positions that differ from that of the highly homologous mouse Ryk to assimilate mouse Ryk at the site of substitution, with amino acid sequence shown in FIG. 3, as shown by immunoblot analyses of recombinant extracellular proteins of human or mouse or each of the various mutant forms of human Ryk (FIG. 4) For this, the binding of 2-D11, 7-H10, or Sheep anti-RYK mAb was assessed using recombinant extracellular RYK proteins as specified in the Key. […]

B1: no binding [1].

B2: no binding [1].

With B3 the “IC50 (read off the curve)” value (7-H10 anti-human RYK mAb) was roughly 20 nM.

For B4, the Kd [2] was 10.6 nM and the binding result [3] was “no binding”.
